# Results: IntAct's records for PubMed 16236155
# B1: ADP-ribosylation factor 3 (Arabidopsis thaliana (Mouse-ear cress)), P40940 (parent)
# chain: MGILFTRMFSSVFGNKEARILVLGLDNAGKTTILYRLQMGEVVSTIPTIGFNVETVQYNNIKFQVWDLGGQTSIRPYWRCYFPNTQAVIYVVDSSDTDRIGVAKEEFHAILEEDELKGAVVLIFANKQDLPGALDDAAVTEALELHKIKSRQWAIFKTCAVKGEGLFEGLDWLSNTLKSGSG
# partner: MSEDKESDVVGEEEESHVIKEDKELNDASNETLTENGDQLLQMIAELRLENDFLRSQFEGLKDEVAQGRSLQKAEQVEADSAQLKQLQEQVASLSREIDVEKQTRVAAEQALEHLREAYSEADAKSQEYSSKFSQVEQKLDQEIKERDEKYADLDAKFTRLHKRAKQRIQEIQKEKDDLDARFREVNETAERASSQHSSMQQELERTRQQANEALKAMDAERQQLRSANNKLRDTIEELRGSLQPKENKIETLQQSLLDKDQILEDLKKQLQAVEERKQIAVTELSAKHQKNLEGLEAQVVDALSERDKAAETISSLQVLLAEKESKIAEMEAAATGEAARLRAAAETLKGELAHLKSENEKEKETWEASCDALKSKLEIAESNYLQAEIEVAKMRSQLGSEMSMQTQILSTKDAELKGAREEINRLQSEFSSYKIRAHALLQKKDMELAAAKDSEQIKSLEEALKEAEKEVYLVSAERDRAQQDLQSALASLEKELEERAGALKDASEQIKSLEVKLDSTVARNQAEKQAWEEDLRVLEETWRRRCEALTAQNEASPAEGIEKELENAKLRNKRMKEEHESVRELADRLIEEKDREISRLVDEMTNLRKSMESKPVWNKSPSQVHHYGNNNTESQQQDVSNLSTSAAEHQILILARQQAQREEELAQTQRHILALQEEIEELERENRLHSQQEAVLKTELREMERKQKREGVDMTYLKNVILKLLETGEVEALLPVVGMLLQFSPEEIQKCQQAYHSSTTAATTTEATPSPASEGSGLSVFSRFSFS
# B2: Protein GRIP (Arabidopsis thaliana (Mouse-ear cress)), Q8S2T0 (parent)
# chain: B1 partner
# partner: B1 chain
# Variants of: B1
# Conditions: with grip_arath GRIP
row,Variant,effect of a mutation on the interaction
1,Q71L,causing an interaction

# Variants of: B1
# Conditions: with grip_arath GRIP, Q8S2T0
row,Variant,effect of a mutation on the interaction
1,T31N,disrupting interaction

# Variants of: B2
# Conditions: with arf3_arath ARF3, P40940
row,Variant,effect of a mutation on the interaction
1,Y717A,decreasing interaction
